Earlier results on 1 substance are cited in publication PMC5430633.

pKd: −log10 of the molar value.

The data set addresses LC3B (Homo sapiens) (UniProt Q9GZQ8).

Usually pKd stands for the Kd on a negative log10 scale, so that one unit is a factor of ten. For the substance Nix LIR (from UniProt O60238), the pKd is 4.04.
